Reference: patent US7122652B1, “Polymorphisms in the human hPXR gene and their use diagnostic and therapeutic applications” (priority 1999, dated 2006)

Test system: hPXR-dependent promoter-reporter gene plasmid pGL3(DR3)3TK(−105)
Experiment: hPXR-dependent promoter-reporter gene (luciferase) assay in co-transfected LS174T cells
Type: cell-based, human
Settings: 42 hours; for hPXR-mediated transcriptional activation of the reporter gene upon treatment with rifampicin, relative to wild type hPXR: 10 μM rifampicin, FIG. 6A; for basal activity in the absence of added hPXR activators, relative to wild type hPXR: 0.1% DMSO only, FIG. 6B
Procedure: FIG. 6: LS174T cells were co-transfected with the promoter artificial hPXR dependent reporter gene pGL3(DR3)3Tk(−105), pCMVβ and expression plasmids for hPXR variants, as indicated. Cells were treated for 42 hours with 10 μM rifampicin or 0.1% DMSO, then harvested and analyzed for luciferase and β-galactosidase activities. Data are shown as mean value ±SD. The activity of each hPXR variant in the presence of DMSO only was taken as 1 (A, B) or 100% (C). A) The effect of hPXR variants following 10 μM rifampicin. B) The effect of hPXR variants in the absence of exogenous inducers.
The functional consequences of the protein variants were investigated in LS174T cells. LS174T cells were first co-transfected with wild-type or variant hPXR expression plasmids together with the hPXR-dependent promoter-reporter gene plasmid pGL3(DR3)3TK(−105). […] The cells were treated with the xenobiotic rifampicin, a known activator of human hPXR (Blumberg, Genes Dev (1998), 3195–3205; Lehmann, J Clin Invest (1998), 1016–1023). […] In contrast, hPXR-mediated transcriptional activation was impaired in V140M, D163G and hPXR-2 variants. […] Changes in basal activity of variants are independent from activator-dependent activity.

B1: E18K: hPXR protein variant, amino acid substitution of E to K at position 18 (c. 52G > A, exon 2) (protein, UniProt O75469 1-434, looked up, variant E18K)
Nuclear receptor subfamily 1 …: MEVRPKESWNHADFVHCKDTESVPGKPSVNADEEVGGPQICRVCGDKATGYHFNVMTCEGCKGFFRRAMKRNARLRCPFRKGACEITRKTRRQCQACRLRKCLESGMKKEMIMSDEAVEERRALIKRKKSERTGTQPLGVQGLTEEQRMMIRELMDAQMKTFDTTFSHFKNFRLPGVLSSGCELPESLQAPSREEAAKWSQVRKDLCSLKVSLQLRGEDGSVWNYKPPADSGGKEIFSLLPHMADMSTYMFKGIISFAKVISYFRDLPIEDQISLLKGAAFELCQLRFNTVFNAETGTWECGRLSYCLEDTAGGFQQLLLEPMLKFHYMLKKLQLHEEEYVLMQAISLFSPDRPGVLQHRVVDQLQEQFAITLKSYIECNRPQPAHRFLFLKIMAMLTELRSINAQHTQRLLRIQDIHPFATPLMQELFGITGS
- hPXR-mediated transcriptional activation of the reporter gene upon treatment with rifampicin, relative to wild type hPXR: as efficiently as wild type hPXR
- basal activity in the absence of added hPXR activators, relative to wild type hPXR: lower basal activity than wild type hPXR

B2: P27S: hPXR protein variant, amino acid substitution of P to S at position 27 (c. 79C > T, exon 2) (protein, UniProt O75469 1-434, looked up, variant P27S)
Nuclear receptor subfamily 1 …: MEVRPKESWNHADFVHCEDTESVPGKSSVNADEEVGGPQICRVCGDKATGYHFNVMTCEGCKGFFRRAMKRNARLRCPFRKGACEITRKTRRQCQACRLRKCLESGMKKEMIMSDEAVEERRALIKRKKSERTGTQPLGVQGLTEEQRMMIRELMDAQMKTFDTTFSHFKNFRLPGVLSSGCELPESLQAPSREEAAKWSQVRKDLCSLKVSLQLRGEDGSVWNYKPPADSGGKEIFSLLPHMADMSTYMFKGIISFAKVISYFRDLPIEDQISLLKGAAFELCQLRFNTVFNAETGTWECGRLSYCLEDTAGGFQQLLLEPMLKFHYMLKKLQLHEEEYVLMQAISLFSPDRPGVLQHRVVDQLQEQFAITLKSYIECNRPQPAHRFLFLKIMAMLTELRSINAQHTQRLLRIQDIHPFATPLMQELFGITGS
- hPXR-mediated transcriptional activation of the reporter gene upon treatment with rifampicin, relative to wild type hPXR: as efficiently as wild type hPXR
- basal activity in the absence of added hPXR activators, relative to wild type hPXR: lower basal activity than wild type hPXR

B3: D163G: hPXR protein variant, amino acid substitution of D to G at position 163 (c. 488A > G, exon 4) (protein, UniProt O75469 1-434, looked up, variant D163G)
Nuclear receptor subfamily 1 …: MEVRPKESWNHADFVHCEDTESVPGKPSVNADEEVGGPQICRVCGDKATGYHFNVMTCEGCKGFFRRAMKRNARLRCPFRKGACEITRKTRRQCQACRLRKCLESGMKKEMIMSDEAVEERRALIKRKKSERTGTQPLGVQGLTEEQRMMIRELMDAQMKTFGTTFSHFKNFRLPGVLSSGCELPESLQAPSREEAAKWSQVRKDLCSLKVSLQLRGEDGSVWNYKPPADSGGKEIFSLLPHMADMSTYMFKGIISFAKVISYFRDLPIEDQISLLKGAAFELCQLRFNTVFNAETGTWECGRLSYCLEDTAGGFQQLLLEPMLKFHYMLKKLQLHEEEYVLMQAISLFSPDRPGVLQHRVVDQLQEQFAITLKSYIECNRPQPAHRFLFLKIMAMLTELRSINAQHTQRLLRIQDIHPFATPLMQELFGITGS
- hPXR-mediated transcriptional activation of the reporter gene upon treatment with rifampicin, relative to wild type hPXR: 50 % of wild type activity
- basal activity in the absence of added hPXR activators, relative to wild type hPXR: approximately 10 % of wild type

B4: V140M: hPXR protein variant, amino acid substitution of V to M at position 140 (c. 418G > A, exon 4) (protein, UniProt O75469 1-434, looked up, variant V140M)
Nuclear receptor subfamily 1 …: MEVRPKESWNHADFVHCEDTESVPGKPSVNADEEVGGPQICRVCGDKATGYHFNVMTCEGCKGFFRRAMKRNARLRCPFRKGACEITRKTRRQCQACRLRKCLESGMKKEMIMSDEAVEERRALIKRKKSERTGTQPLGMQGLTEEQRMMIRELMDAQMKTFDTTFSHFKNFRLPGVLSSGCELPESLQAPSREEAAKWSQVRKDLCSLKVSLQLRGEDGSVWNYKPPADSGGKEIFSLLPHMADMSTYMFKGIISFAKVISYFRDLPIEDQISLLKGAAFELCQLRFNTVFNAETGTWECGRLSYCLEDTAGGFQQLLLEPMLKFHYMLKKLQLHEEEYVLMQAISLFSPDRPGVLQHRVVDQLQEQFAITLKSYIECNRPQPAHRFLFLKIMAMLTELRSINAQHTQRLLRIQDIHPFATPLMQELFGITGS
- hPXR-mediated transcriptional activation of the reporter gene upon treatment with rifampicin, relative to wild type hPXR: 50 % of wild type activity
- basal activity in the absence of added hPXR activators, relative to wild type hPXR: 130 % of wild type

B5: G36R: hPXR protein variant, amino acid substitution of G to R at position 36 (c. 106G > A, exon 2) (protein, UniProt O75469 1-434, looked up, variant G36R)
Nuclear receptor subfamily 1 …: MEVRPKESWNHADFVHCEDTESVPGKPSVNADEEVRGPQICRVCGDKATGYHFNVMTCEGCKGFFRRAMKRNARLRCPFRKGACEITRKTRRQCQACRLRKCLESGMKKEMIMSDEAVEERRALIKRKKSERTGTQPLGVQGLTEEQRMMIRELMDAQMKTFDTTFSHFKNFRLPGVLSSGCELPESLQAPSREEAAKWSQVRKDLCSLKVSLQLRGEDGSVWNYKPPADSGGKEIFSLLPHMADMSTYMFKGIISFAKVISYFRDLPIEDQISLLKGAAFELCQLRFNTVFNAETGTWECGRLSYCLEDTAGGFQQLLLEPMLKFHYMLKKLQLHEEEYVLMQAISLFSPDRPGVLQHRVVDQLQEQFAITLKSYIECNRPQPAHRFLFLKIMAMLTELRSINAQHTQRLLRIQDIHPFATPLMQELFGITGS
- hPXR-mediated transcriptional activation of the reporter gene upon treatment with rifampicin, relative to wild type hPXR: as efficiently as wild type hPXR
- basal activity in the absence of added hPXR activators, relative to wild type hPXR: lower basal activity than wild type hPXR

B6: A370T: hPXR protein variant, amino acid substitution of A to T at position 370 (c. 1108G > A, exon 8) (protein, UniProt O75469 1-434, looked up, variant A370T)
Nuclear receptor subfamily 1 …: MEVRPKESWNHADFVHCEDTESVPGKPSVNADEEVGGPQICRVCGDKATGYHFNVMTCEGCKGFFRRAMKRNARLRCPFRKGACEITRKTRRQCQACRLRKCLESGMKKEMIMSDEAVEERRALIKRKKSERTGTQPLGVQGLTEEQRMMIRELMDAQMKTFDTTFSHFKNFRLPGVLSSGCELPESLQAPSREEAAKWSQVRKDLCSLKVSLQLRGEDGSVWNYKPPADSGGKEIFSLLPHMADMSTYMFKGIISFAKVISYFRDLPIEDQISLLKGAAFELCQLRFNTVFNAETGTWECGRLSYCLEDTAGGFQQLLLEPMLKFHYMLKKLQLHEEEYVLMQAISLFSPDRPGVLQHRVVDQLQEQFTITLKSYIECNRPQPAHRFLFLKIMAMLTELRSINAQHTQRLLRIQDIHPFATPLMQELFGITGS
- hPXR-mediated transcriptional activation of the reporter gene upon treatment with rifampicin, relative to wild type hPXR: slightly impaired transcriptional activation
- basal activity in the absence of added hPXR activators, relative to wild type hPXR: 207 % of wild type
